These are literature values, as cited in publication PMC9887155, “Kinetics of cone specific G-protein signaling in avian photoreceptor cells” (Frontiers in Molecular Neuroscience, 2023).

The series addresses Gtα (Bos taurus) (UniProt P04695). The series is described as follows: SPR. (In general: In SPR one partner is held on a chip, and binding of the other changes the refractive index at the surface.)

rhodopsin (dark-adapted), sequence (P02699 whole entry): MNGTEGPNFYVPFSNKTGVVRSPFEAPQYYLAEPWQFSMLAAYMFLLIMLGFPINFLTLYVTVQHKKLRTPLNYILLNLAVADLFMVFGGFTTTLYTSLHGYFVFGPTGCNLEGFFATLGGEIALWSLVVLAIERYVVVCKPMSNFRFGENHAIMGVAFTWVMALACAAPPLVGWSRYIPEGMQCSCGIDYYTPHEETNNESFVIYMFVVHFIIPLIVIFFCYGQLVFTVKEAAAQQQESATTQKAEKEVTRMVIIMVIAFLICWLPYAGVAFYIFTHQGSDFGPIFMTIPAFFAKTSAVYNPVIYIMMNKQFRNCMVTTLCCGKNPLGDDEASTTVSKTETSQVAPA
Gtα (Bos taurus), sequence (P04695 2-350): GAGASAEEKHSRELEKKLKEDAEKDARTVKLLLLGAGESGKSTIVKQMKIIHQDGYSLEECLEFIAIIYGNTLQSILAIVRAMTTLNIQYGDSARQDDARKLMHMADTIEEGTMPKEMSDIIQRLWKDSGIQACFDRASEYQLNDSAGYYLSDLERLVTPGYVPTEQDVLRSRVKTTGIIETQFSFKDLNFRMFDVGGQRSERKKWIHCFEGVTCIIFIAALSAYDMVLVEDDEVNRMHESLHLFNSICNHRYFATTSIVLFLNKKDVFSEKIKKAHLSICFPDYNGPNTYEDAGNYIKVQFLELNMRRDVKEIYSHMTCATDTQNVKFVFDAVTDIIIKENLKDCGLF

The Kd is the constant that tells how readily two partners part at equilibrium. Take “rhodopsin (dark-adapted) (from UniProt P02699)”: the Kd was 360 nM.
